The nature of this data set: soluble on expression in E. coli; label from the status in PepcDB or PDB records.
On to “MGSDKIHHHHHHMSDLKSLATKFASDHESGKLLVLPTVWDTWSAGLVEEAGFSGLTIGSHPVADATGSSDGENMNFADYMAVVKKITSAVSIPVSVDVESGYGLSPADLIAQILEAGAVGINVEDVVHSEGKRVREAQEHADYIAAARQAADVAGVDVVINGRTDAVKLGADVFEDPMVEAIKRIKLMEQAGARSVYPVGLSTAEQVERLVDAVSVPVNITAHPVDGHGAGDLATLAGLGVRRVTFGPLWQKWLAATSAQQLKGWA”, for which the “soluble on expression in E. coli” value is listed as “not soluble”. Then “AHHHHHHGSAKLKEPIIAINFKTYIEATGKRALEIAKAAEKVYKETGVTIVVAPQLVDLRMIAESVEIPVFAQHIDPIKPGSHTGHVLPEAVKEAGAVGTLLNHSENRMILADLEAAIRRAEEVGLMTMVCSNNPAVSAAVAALNPDYVAVEPPELIGTGIPVSKAKPEVITNTVELVKKVNPEVKVLCGAGISTGEDVKKAIELGTVGVLLASGVTKAKDPEKAIWDLVSGIIKE”, with “soluble”; and “SLIENSHVKKDDIWPSGGQMTVKDLTAKYTEGGNAILENISFSISPGQRVGLLGRTGSGKSTLLSAFLRLLNTEGEIQIDGVSWDSITLEQWRKAFGVIPQKVFIFSGTFRKNLDPNAAHSDQEIWKVADEVGLRSVIEQFPGKLDFVLVDGGCVLSHGHKQLMCLARSVLSKAKILLLDEPSAHLDPVTYQIIRRTLKQAFADCTVILCEARIEAMLECDQFLVIEENKVRQYDSIQKLLNERSLFRQAISPSDRVKLFPHRNSSKCKSKPQIERETLVTMENVTAFWEEGGTPVLKDINFKIERGQLLAVAGSTGAGKTSLLMMIMGELEPSEGKIKHSGRISFCSQNSWIMPGTIKENIIFGVSYDEYRYRSVIKACQLEEDISKFAEKDNIVLGEGGITLSGGQRARISLARAVYKDADLYLLDSPFGYLDVLTEKEIFESCVCKLMANKTRILVTSKMEHLKKADKILILHEGSSYFYGTFSELQNLRPDFSSKLMG”, with “soluble”; and “MHLKNNQTLANGATVTIYPTTTEPTNYVVYLHGGGMIYGTKSDLPEELKELFTSNGYTVLALDYLLAPNTKIDHILRTLTETFQLLNEEIIQNQSFGLCGRSAGGYLMLQLTKQLQTLNLTPQFLVNFYGYTDLEFIKEPRKLLKQAISAKEIAAIDQTKPVWDDPFLSRYLLYHYSIQQALLPHFYGLPENGDWSAYALSDETLKTFPPCFSTASSSDEEVPFRYSKKIGRTIPESTFKAVYYLEHDFLKQTKDPSVITLFEQLDSWLKER”, with “soluble”.

On to “MESELSGISNENQISFFGFSAGSFSDSIFNIYVDAWEEVCSNEFKNSLKKLTDKDRLCLLSFPFSDKTNEKAFKMMKRFCVTNIFRIPASVTLPECKKMLIASAKEHKSLKQVEKEFDEKLEKIRQLRIKLAKRHDELEAVNNAIEVLHVMEKSQEQLISQKRIVPDSPTRMSPV”, for which the “soluble on expression in E. coli” value is recorded as “not soluble”.

As to “MAKPVVIGSRSFRTQSSALDHYKALLHRYQDGQRIADPADHTDLVALIERFDPVLDAVGEPAKGAGQIAHFERRLNTGIGWSTPGFWVVRQDGTETDFSYIDAVKGRPKGRSQDFYNACRQAVALDLVLAKKQAFAQYGDDQGRVECELTGKMVTIDDAHLDHAWPYFSHMVSGFRAARGWSRDIPDGIVSTPADGQTTATFLDSAVTEAFRAFHHDQAVLRVLSREANLQTASSARRPKVARPVRLALEHHHHHH”, the “soluble on expression in E. coli” value was “soluble”. With “HQRWHKKASVLIYGAGSSGRQLATALSQGPEYHAVAFIDDYKALQGQIIQGIPVYSPEEISHVVERKTVQKILLAIPSASRARRKQVLAKIDCLGIQVLTIPGMADIVEGKAKLEEFKDVGVEDLLGRDSVEPKPELMNADIAD” the entry was “not soluble”. As for “MRKIWGILFLCLTFMLVGCGKEEKPQEAFDTYAKAWNKQKFAEMYDQLSEKAKKDISKKEFTEKYEKIYSGIEVKNLKVEAGEVKEDKKDEGPIPFKVSMDTVGGKINFGHEAKMVKEKDGDKESWKVDWTPDFIFPGMTKDSKVRMQTTEPKRGEIYDRNGKGLATNGKASEIGLIPEKLGDTAPQTKETVAKLLNMSVEEIDQKLAAKWVKPGYLVPIGILPEGATQNTYIDLPGVSTKPVNVRTYPLGEAAAHLTGYIGKVNAEDLKTLQKKGYQADDPVGKAGLEQVLEEKLRGKKGGRVFVEDAQGKEIKNLAKTDAVDGENVTLTIDSAVQEKTYNEMKGEAGSSAAINPKSGETLALVSSPAYDPNIIARGTSKAQREAWNNDPKKPMTNRFTQLSVPGSVFKPITAAIGLETKTIDPKEELKIEGLKWTKDSSWGNYYVTRVKDANPIDFDKAMKYSDNIYFAQEALKIGKDKFMSEAKKFGFDEKLPIEYGFPASKIANDGIKNDIQMADTGYGQGQVLMTPLHLALTYAPIVNDGNIPSPYIIKTDKQPKVWKENVISKGNQDILKTAMTKVINDPDGTGKIAKIDGMTLAGKTGTAELKVSKEAEGKELGWFAAFDLNSPDMVITMMIEDVKGRGGSNIPAEKVKHVFQK”, the “soluble on expression in E. coli” value was “not soluble”.

“MKIFENIEDVKAIRKKTGLNQIDFWGKVGVTQSGGSRYETGRKMPKPVRELLRLVHIECIDLAKVNKKDMEIAALLKKHHPDLYAELSKQTKSERKKQS”: the “soluble on expression in E. coli” value is on record as “not soluble”. Then “GAGAYAYKTIKEDQKRYNERVMGLGLSPEEKQRRAIASATEGGSVPQIRAPSHVPFLLIGGGTAAFAAARSIRARDPGARVLIVSEDPELPYMRPPLSKELWFSDDPNVTKTLQFRQWNGKERSIYFQPPSFYVSAQDLPNIENGGVAVLTGKKVVHLDVRGNMVKLNDGSQITFEKCLIATGGTPRSLSAIDRAGAEVKSRTTLFRKIGDFRALEKISREVKSITVIGGGFLGSELACALGRKSQASGIEVIQLFPEKGNMGKILPQYLSNWTMEKVKREGVKVMPNAIVQSVGVSGGRLLIKLKDGRKVETDHIVTAVGLEPNVELAKTGGLEIDSDFGGFRVNAELQARSNIWVAGDAACFYDIKLGRRRVEHHDHAVVSGRLAGENMTGAAKPYWHQSMFWSDLGPDVGYEAIGLVDSSLPTVGVFAKATAQDNPKSATEQSGTGIRSESETESEASEITIPPSAPAVPQVPVEGEDYGKGVIFYLRDKVVVGIVLWNVFNRMPIARKIIKDGEQHEDLNEVAKLFNIHED”, with “soluble”; and “MGSDKIHHHHHHMMTLTVEYYFTHPQDKLGMYASDPEDNSQEHGHEFAELVIVEEGHGLHVINGRPLYIQQGDVFYVQPGDVHYYDELGTLKLINVLINPAVAFGYLQQMEGLLQQLSAQRAACYGWLAPETRSYCRELVEKIFSPALRAADNTPLRESLFFQLVTTILTAESEAEYSSTRYKLHKLLTWLQEHCFEEHNWQQLAEQFHLTTRTAFRHIKEATGLTPDNYLKRLRLVSARVKLRETEMTITEVAYLCGFANSNHFTTLYKKVFGLTPSADRRRPPG”, with “not soluble”; and “LVDGSLCELRYSWAKIDTYQHVNNFITLNQVKIALAQSRCHNHHLDSTTITVWYDSAFSVMRDLKGIGANHVSGRSHGLTSRRTLLQVERAYQAFKNDQGLLPATYQVCFGVIHL”, with “not soluble”.

As to “MAKSRLLLSELLDQLSFALCIVRNDYVIVKVNEYFESRVIFDGETMQGKNILELFPESADYLKRKIDTALVIESSSFSSWEQKPHLLPFKSSRPVSGEEEQMYQNLEVIPIHSEDGTIEHVCLCVYDVTIQASQQQELKRVSQKLEEEHQSQKVLIKKLEDAQGQLIQSEKMASIGQLSAGIAHEINNPVGFITSNLQTLSDYFNSLEKVLKSITQTIGQSKDTALNEACQKILKQGQVDFILEDTAELITESLEGSSRVMSIVKNLKEFSHVDRSEWSYANLENCIESTLKIINNEIKYNITLEKHYAANVPDVFCQPMQINQVLLNILVNASHAIKGEGTITITLQSAGDDFVEIHIRDTGCGIPEEIRERIFEPFFTTKPVGSGTGLGLSVSYGIINKHNGTISVTSEVGKGSEFTIRLPVNPSAEAVDNTDAKAM”, the “soluble on expression in E. coli” value is reported as “not soluble”. Take “TKLTEQQTMNGLLRFGEYQRIIERRSFSLLDMKRFVTALGLESGGYRGEFSDLVNQGQPAIVPISYAGFKHFVVYKGYKDGRVYVADPALGNISFDEVRFKEIWENNTLFLIQVPE”: the “soluble on expression in E. coli” value is “not soluble”. With “SEKMKLLYVYDPLCGWCYGFGPVVEKIEKNYKGTVDVEIISGGMVMGNRIAPIGNMSEYILDAIPRLQRMTGIEFGQPYITLLKEGSYVTSSEKPSIALCVYKSFTAERAVEYGHAIQTSFYKEGKDLNQDVLYADLATSYGIDRAAFLKRMKDSVYFNQAHEEFKRAAALGVTGFPTLLLKQENGYTALTEGYATYESIEKQLQKHVKAAGTK” the entry was “not soluble”; with “MSLTNLTVHTLEKDDIDSIIEIENLCFPTPWTKESMEGELRNKFAKYVVIKNNNLVVGYGGLWLIIDEGHITNIAVHPEFRGMGIGNKILEELIKLCEKRNIPSMTLEVRISNTIAQNLYKKFGFKEAGVRKKYYGDNDEDALIMWRNEGHHHHHH”, “soluble”. As to “MKNEVKFMSEVIKVVDVKIFPHRYLKAETTEKVLNEIYDLDGIVRVIVHGQPLPKTVPFGPARGLPVNHQDRKVIKVKGEEMELRVKVGEIIITVEGEKLEKIMDGIEEICKRNFPFGYDIYVGAFTKIKPTVTDYMKYGDISSIDPRLIGMVDASARLKDSVKMIKLEHHHHHH”, the “soluble on expression in E. coli” value is “soluble”. With “MGSDKIHHHHHHMSIFANLFKKQADADAKVVGNVEDFVSLTRVYFQSVIAVNLGITNIRFLPDVANFKRLFKVATQGGKLGLAEKSASRKMLMQDYGISESFFKEIDTSIKKNCRTQNDVQAYLFMYQGFSSDLMMLMGNLMQWKFRMPAIFKKALRSMTEKTVHDVCTKTVWKADDVHKTAAAVRQYKERLGFSEQWMSEYVYNIVLLAKKEPKHKDEEAKAK” the entry was “not soluble”. With “MRQAASIACIGGANVDRKARLLTPFRLGTSHPVTTTQTAGGVARNIAENLGRLAQPVSLVSTVGDDRDGQWLVDVTSRYVNTSFIVRTPKANTGTYTAVLDERGEMVLALADMAIYHPEPRRPPLPRVSVSGG” the entry was “not soluble”. In the case of “MNYTETVAYIHSFPRLAKTGDHRRILTLLHALGNPQQQGRYIHVTGTNGKSTAANAIAHVLEASGLTVGLYTSPFIMRFNERIMIDHEPIPDAALVNAVAFVRAALERLQQQQADFNVTEFEFITALGYWYFRQRQVDVAVIEVGIGGDTDSTNVITPVVSVLTSVALDHQKLLGHTITAIAKHKAGIIKRGIPVVTGNLVPDAAAVVAAKVATTGSQWLRFDRDFSVPKAKLHGWGQRFTYEDQDGRISDLEVPLVGDYQQRNMAIAIQTAKVYAKQTEWPLTPQNIRQGLAASHWPARLEKISDTPLIVIDGAHNPDGINGLITALKQLFSQPITVIAGILADKDYAAMADRLTAAFSTVYLVPVPGTPRALPEAGYEALHEGRLKDSWQEALAASLNDVPDQPIVITGSLYLASAVRQTLLGGKS”, the “soluble on expression in E. coli” value is given as “soluble”. With “MSLNVIDLFSGVGGLSLGAARAGFDVKMAVEIDQHAINTHAINFPRSLHVQEDVSLLNAEIIKGFFKNDMPIDGIIGGPPCQGFSSIGKGNPDDSRNQLYMHFYRLVSELQPLFFLAENVPGIMQEKYSGIRNKAFNLVSGDYDILDPIKVKASDYGAPTIRTRYFFIGVKKSLKLDISDEVFMPKMIDPVTVKDALYGLPDIIDANWQSDSESWRTIKKDRKGGFYEKLWGQIPRNVGDTESIAKLKNNIISGCTGTLHSKIVQERYASLSFGETDKISRSTRLDPNGFCPTLRAGTARDKGSFQAVRPIHPYHPRVITPREAARLQGFPDWFRFHVTKWHSFRQIGNSVSPIVAEYILKGLYNLLNKRVQPEYLNHNSLEVREGHHHHHH” the entry was “soluble”; with “GSSEEESFFVQVHDVSPEQPRTVIKAPRVSTAQDVIQQTLCKAKYSLSILSNPNPSDYVLLEEVVKDTTNKKTTTPKSSQRVLLDQECVFQAQSKWKGAGKFILKLKEQVQASREDK”, “soluble”.

The values above are taken from the DeepSol protein solubility set.
